Article PMC3931302

Columns and labels:
[1] = biological target: GST-HTTex1p 20QP (unexpanded HTT exon 1 with the proline-rich region); assay: pull-down
[2] = biological target: GST-HTTex1p 51QP (expanded HTT exon 1 with the proline-rich region); assay: pull-down

“radiolabeled human PIAS1 (from UniProt O75925-1 1-651) (natural protein)” showed a percent of 35S-labeled PIAS1 bound [1] of 7.75% and a percent of 35S-labeled PIAS1 bound [2] of 7%.
